Consider 3 molecules from patent publication US20100243450, “NON-EQUILIBRIUM CAPILLARY ELECTROPHORESIS OF EQUILIBRIUM MIXTURES (NECEEM)-BASED METHODS FOR DRUG AND DIAGNOSTIC DEVELOPMENT” (published 2010).

The target in series [1] is T1, SSB (single-stranded DNA-binding protein) (UniProt P0AGE0 P0AGE0:2-178). The series is described as follows: NECEEM run buffer 25 mM tetraborate pH 9.4 with 100 nM SSB; fully double-stranded, not bound. The settings on record: chain copies: 4; label: 5'-fluorescein on DNA-1; duplex without single-stranded overhang.
The target of series [2] is T1, SSB (single-stranded DNA-binding …). The series is described as follows: NECEEM run buffer 25 mM tetraborate pH 9.4 with 100 nM SSB; binds via single-stranded overhang. The following applies: chain copies: 4; label: 5'-fluorescein on DNA-1; duplex with 10-nt single-stranded overhang.
For series [3] the target is unchanged. The series is described as follows: NECEEM; 25 mM tetraborate pH 9.4, incubated at room temperature; koff 3.3e-2 s-1, kon 1.2e5 M-1 s-1. The settings on record: chain copies: 4; label: 5'-fluorescein. As for the experimental part:
SSB and a fluorescently-labeled 15-mer ssDNA oligonucleotide, 5′-fluorescein-[…] ([…]) were used in this example (Berezovski and Krylov J. Amer. Chem. Soc. 2002, 124, 13674). NECEEM separation of protein-DNA complexes was performed using a laboratory-built CE instrument with fluorescence detector described in detail elsewhere (Wu and Dovichi J. Chromatogr. 1989, 480, 141). A 488 nm line of an Argon-ion laser was utilized to excite the fluorescence of the DNA. Uncoated fused silica capillaries of 40 cm×20 μm I.D.×150 μm O.D. were used. The electrophoresis was run with a positive electrode at the injection end biased at +24 kV. The run buffer for NECEEM was 25.0 mM tetraborate at pH 9.4. The samples were injected into the capillary by a pressure pulse of 1 s×9.1 kPa; the length of corresponding sample plug was 0.93 mm as was calculated using the Poiseulle equation (Krylov et al. Anal. Chem. 2000, 72, 872). The capillary was rinsed with the run buffer solution for 2 minutes prior to each run. At the end of each run, the capillary was rinsed with 100 mM NaOH for 2 minutes, followed by a rinse with deionized water for 2 minutes.
Equilibrium mixtures of SSB, fDNA and SSB•fDNA complex were prepared by mixing solutions of 16 μM SSB and 205 nM fDNA in the run buffer at a desired volume ratio and incubating them at room temperature to reach equilibrium prior to the analysis. […]

T1 sequence (P0AGE0 2-178, one chain of several): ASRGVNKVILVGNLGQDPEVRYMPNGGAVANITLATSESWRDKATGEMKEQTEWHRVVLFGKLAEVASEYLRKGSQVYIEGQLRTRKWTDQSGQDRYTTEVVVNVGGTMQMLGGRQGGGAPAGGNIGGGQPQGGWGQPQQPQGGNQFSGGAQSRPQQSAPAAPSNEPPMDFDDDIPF

B1: DNA-1/DNA-3/DNA-2 hybrid (dsDNA)
DNA 1: GCGGAGCGTGGCAGG
DNA 2: CCTGCCACGCTCCGCTCTAAAAATAA
DNA 3: TTATTTTTAG
In the case of B1, the binding result in series [1] is reported as “no binding”.

B2: DNA-1/DNA-3 hybrid (mixed)
DNA 1: GCGGAGCGTGGCAGG
DNA 2: CCTGCCACGCTCCGCTCTAAAAATAA
As for B2, the binding result in series [2] is “binds”.

B3: fDNA 15-mer (DNA-1) (ssDNA)
DNA: GCGGAGCGTGGCAGG
Regarding B3, the Kd (as a rule, the concentration at which binding is half-saturated) in series [3] was 280 nM.
